Data published in US7208301B2, “Method for producing 6-0-α-D-glucopyranosyl-D-sorbitol” (Südzucker Aktiengesellschaft Mannheim/Ochsenfurt, priority 1999, dated 2007).

Test: Storage stability of purified SDH
Assay type: physicochemical
Description: In another preferred embodiment the temperature of the aqueous reaction solution is 20° C. to 40° C., especially 25° C., in the enzymatic conversion. At temperatures of 25° C. the purified SDH has stability of about a week. Thus, temperatures in this range are well-suited for conducting long-term enzyme-catalyzed processes.
The purified SDH can be stored for about 8 months at −30° C. and the SDH is stable for about 30 days at +4° C.

B1: SDH: sorbitol dehydrogenase of Gluconobacter suboxidans DSM 2003, 262 amino acids (SEQ ID No. 1), purified per Example 1 (protein)
chain: MSKKFNGKVCLVTGAGGNIGLATALRLAEEGTAIALLDMNREALEKAEASVREKGVEARSYVCDVTSEEAVIGTVDSVVRDFGKIDFLFNNAGYQGAFAPVQDYPSDDFARVLTINVTGAFHVLKAVSRQMITQNYGRIVNTASMAGVKGPPNMAAYGASKGAIIALTETAALDLAPYNIRVNAISPGYMGPGFMWERQVELQAKVGSQYFSTDPKVVAQQMIGSVPMRRYGDINEIPGVVAFLLGDDSSFMTGVNLPIAGG
modifications: Gluconobacter suboxydans
stability of purified SDH (at 25° C.): about a week
stability of SDH (at +4° C.): about 30 days
storage time of purified SDH (at −30° C.): about 8 months
